Consider two molecules from patent US20220206001A1 (TWIST BIOSCIENCE, published 2022).

For assay [1], the target named is SARS-CoV-2 nucleocapsid protein (SARS-CoV-2, UniProt P0DTC9 1-419). Briefly: lateral flow screen with nucleocapsid protein, capture antibody.
For assay [2], the target named is T1, SARS-CoV S1 monomer (SARS-CoV, UniProt P59594 14-667).
T1 construct: domain: S1
As to the kind of experiment: SPR (Carterra LSA).

B1: Ab-89 (antibody, V domains shown)
VH: EVQLVESGGGLVQPGGSLRLSCAASGIPSTLRAMGWFRQAPGKEREFVALINRSGGSQFYADSVKGRFTISADNSKNTAYLQMNSLKPEDTAVYYCAIGRGSWGQGTLVTVSS
For B1, the binding result in assay [1] was “binds”.

B2: Ab-7 (antibody, V domains shown)
VH: EVQLLESGGGLVQPGGSLRLSCAASGFTFSDFAMAWVRQAPGKGLEWVSAISGSGDITYYADSVKGRFTISRDNSKNTLYLQMNSLRAEDTAVYYCAREADGLHSPWHFDLWGQGTLVTVSS
VL: DIQMTQSPSSLSASVGDRVTITCRASQSIHTYLNWYQQKPGKAPKLLIYAASALASGVPSRFSGSGSGTDFTLTISSLQPEDFATYYCQQSYSAPPYTFGQGTKVEIK
As for B2, the binding result in assay [2] was “binds”.
